In assay [1] the target is T1, human BR3 expressed on cells (human, UniProt Q96RJ3 1-184).
T1 construct: whole, on cells; also called BR3 on BJAB cells; cell surface BR3
Briefly: BJAB cells, direct binding.

Assay [2] concerns the target T2, human FcRn (human, UniProt P55899 24-297; P61769 21-119, limits assumed).
T2 construct: construct not described; also called huFcRn
Briefly: SPR, FcRn on chip, kinetic, pH 6. A general note: In SPR one partner is held on a chip, and binding of the other changes the refractive index at the surface.

In assay [3] the target is T3, cynomolgus FcRn (cynomolgus monkey, UniProt Q8SPV9 24-297; Q8SPW0 21-119, limits assumed).
T3 construct: construct not described; also called cynoFcRn; cyno FcRn
Nature of the assay: SPR, FcRn on chip, kinetic, pH 6.

Assay [4] has as its target T4, human BR3 extracellular domain (human, UniProt Q96RJ3 1-61).
T4 construct: biotinylated where used as tracer; also called hBR3-ECD; BR3-ECD
Briefly: SPR, IgG on chip, BR3 ECD in solution.

In assay [5] the target is T1, human BR3 expressed on cells. Nature of the assay: BJAB cells, competition with biotin-BAFF.
For assay [6], the target named is T2, human FcRn. Briefly: SPR, FcRn on chip, kinetic, pH 6.0 (KDa).
Assay [7] deals with T3, cynomolgus FcRn. Nature of the assay: SPR, FcRn on chip, kinetic, pH 6.0 (KDa).
In assay [8] the target is T2, human FcRn. Nature of the assay: SPR, FcRn on chip, equilibrium, pH 6.0 (KDb).
Assay [9] addresses T3, cynomolgus FcRn. Briefly: SPR, FcRn on chip, equilibrium, pH 6.0 (KDb).
The target of assay [10] is T5, human FcγRI extracellular domain, His-tagged GST fusion (human, UniProt P12314 16-292).
T5 construct: extracellular domain; also called hFcgRI; Human I
Briefly: ELISA, captured FcgR-GST; A450 ratio to 9.1RF.

Assay [11] addresses T6, human FcγRIIa extracellular domain, His-tagged GST fusion (human, UniProt P12318 34-217).
T6 construct: extracellular domain; also called hFcgRIIa; Human IIa
T6 sequence (looked up): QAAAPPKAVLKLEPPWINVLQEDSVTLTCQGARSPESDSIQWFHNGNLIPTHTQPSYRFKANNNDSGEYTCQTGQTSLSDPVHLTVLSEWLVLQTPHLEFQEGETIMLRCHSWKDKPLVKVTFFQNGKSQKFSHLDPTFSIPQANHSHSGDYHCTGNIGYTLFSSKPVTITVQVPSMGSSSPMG
Briefly: ELISA, captured FcgR-GST; A450 ratio to 9.1RF. On the technique in general: In an ELISA, binding on a coated surface is turned into a signal by an enzyme label.

Assay [12] addresses T7, human FcγRIIb extracellular domain, His-tagged GST fusion (human, UniProt P31994 43-217).
T7 construct: extracellular domain; also called hFcgRIIb; Human IIb
T7 sequence (looked up): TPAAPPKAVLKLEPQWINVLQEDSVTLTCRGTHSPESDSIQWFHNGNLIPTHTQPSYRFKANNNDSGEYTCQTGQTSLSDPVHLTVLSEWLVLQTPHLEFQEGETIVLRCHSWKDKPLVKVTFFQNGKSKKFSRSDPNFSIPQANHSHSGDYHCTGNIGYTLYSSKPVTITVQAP
Briefly: ELISA, captured FcgR-GST; A450 ratio to 9.1RF.

Assay [13] deals with T5, human FcγRI extracellular domain, …. Nature of the assay: ELISA, captured FcgR-GST; EC50herceptin/EC50sample.
In assay [14] the target is T6, human FcγRIIa extracellular domain, …. Briefly: ELISA, captured FcgR-GST; EC50herceptin/EC50sample.
Assay [15] concerns the target T7, human FcγRIIb extracellular domain, …. Briefly: ELISA, captured FcgR-GST; EC50herceptin/EC50sample.
The target in assay [16] is T8, mouse FcγRI extracellular domain, His-tagged GST fusion (mouse, UniProt P26151 25-297).
T8 construct: extracellular domain; also called Mouse I
T8 sequence (looked up): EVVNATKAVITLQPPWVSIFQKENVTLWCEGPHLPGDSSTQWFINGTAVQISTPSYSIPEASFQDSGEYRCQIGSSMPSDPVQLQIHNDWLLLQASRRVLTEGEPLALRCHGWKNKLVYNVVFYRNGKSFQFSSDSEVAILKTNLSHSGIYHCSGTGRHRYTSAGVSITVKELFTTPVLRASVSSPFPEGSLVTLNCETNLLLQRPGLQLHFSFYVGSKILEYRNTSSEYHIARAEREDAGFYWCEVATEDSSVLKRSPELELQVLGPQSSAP
Briefly: ELISA, captured FcgR-GST; EC50herceptin/EC50sample.

The target of assay [17] is T9, mouse FcγRII extracellular domain, His-tagged GST fusion (mouse, UniProt P08101 30-210).
T9 construct: extracellular domain; also called Mouse II
T9 sequence (looked up): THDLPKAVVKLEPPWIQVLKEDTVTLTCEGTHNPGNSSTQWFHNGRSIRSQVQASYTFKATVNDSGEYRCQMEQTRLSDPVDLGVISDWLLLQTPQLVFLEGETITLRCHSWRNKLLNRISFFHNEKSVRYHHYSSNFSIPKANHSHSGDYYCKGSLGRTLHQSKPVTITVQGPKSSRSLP
Nature of the assay: ELISA, captured FcgR-GST; EC50herceptin/EC50sample.

For assay [18], the target named is T10, mouse FcγRIII extracellular domain, His-tagged GST fusion (mouse, UniProt P08508 31-215).
T10 construct: extracellular domain; also called Mouse III
T10 sequence (looked up): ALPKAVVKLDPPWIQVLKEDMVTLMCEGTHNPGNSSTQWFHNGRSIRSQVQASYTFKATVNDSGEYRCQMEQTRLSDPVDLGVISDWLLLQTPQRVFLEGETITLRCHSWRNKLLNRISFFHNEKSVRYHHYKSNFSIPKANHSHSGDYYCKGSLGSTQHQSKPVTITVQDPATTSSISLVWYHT
Briefly: ELISA, captured FcgR-GST; EC50herceptin/EC50sample.

Assay [19] concerns the target T5, human FcγRI extracellular domain, …. Briefly: ELISA, receptor-His-GST captured by anti-GST, uncomplexed IgG.
Assay [20] deals with T6, human FcγRIIa extracellular domain, …. Nature of the assay: ELISA, receptor-His-GST captured by anti-GST, IgG complexed with anti-kappa F(ab')2.

As usually defined, the EC50 is the concentration needed to bring the measured effect to its halfway point. Lower therefore signals an effect from little substance. The term koff denotes a measure of how fast the partners let go of each other. The low end stands for a long-lived complex, the high end for a short-lived complex. One may read the kon as the rate constant with which the complex forms. A lower kon goes with slower complex formation. In general, Kd refers to a measure of binding affinity in units of concentration. Read a high Kd as lower affinity. What is called IC50 is the point on the concentration scale where inhibition reaches its midpoint. The low end stands for higher potency, the high end for lower potency. The EC50 (read off the curve) is the concentration giving half of the maximal effect. A low value points to higher potency in that assay.

B1: 9.1RF IgG antibody (antibody)
light: DIQMTQSPSSLSASVGDRVTITCKSSQSLLYSSNQNNYLAWYQQKPGKAPKLLIYWASTRESGVPSRFSGSGSGTDFTLTISSLQPEDFATYYCQQYYTYPYTFGQGTKVEIKRTVAAPSVFIFPPSDEQLKSGTASVVCLLNNFYPREAKVQWKVDNALQSGNSQESVTEQDSKDSTYSLSSTLTLSKADYEKHKVYACEVTHQGLSSPVTKSFNRGEC
heavy: not shown
notes: produced in CHO cells; also called h9.1-RF; Hu9.1-RF-IgG; copies: 2 + 2
B1 had an EC50 in [1] of 0.46 nM. The koff in the assay with human FcRn [2] came out at 0.0784 s⁻¹; in the assay with cynomolgus FcRn [3], 0.192 s⁻¹; in assay [4], 0.000309 s⁻¹. Also, the on-rate (kon) with human FcRn [2] was 635000 M⁻¹ s⁻¹; with cynomolgus FcRn [3], 1.01e+06 M⁻¹ s⁻¹; in assay [4], 1.8e+06 M⁻¹ s⁻¹. Further, the dissociation constant (Kd) is 0.169 nM in assay [4]; 123 nM with human FcRn [6]; 191 nM in the assay with cynomolgus FcRn [7]; 118 nM in the assay with human FcRn [8]; 186 nM with cynomolgus FcRn [9]. In [5], the concentration for half-maximal inhibition (IC50) was determined as 0.68 nM. Further, the “binding relative to 9.1RF” value in assay [10], in assay [11] and in assay [12] was 1 ratio in each case. Further, the “fold improvement in binding vs Herceptin” value in [13] was 1 fold; in assay [14] it was 2.3 fold; in assay [15], 0.7 fold; in assay [16], 1.2 fold; in assay [17], 0.7 fold; in assay [18], 0.8 fold. Also, the concentration for a half-maximal effect (EC50 (read off the curve)) in [19] was roughly 0.006 µg/mL; in assay [20] it was roughly 1 µg/mL.

For the origin of these results see patent publication US20100280227A1 (Genentech, published 2010).
